From US20230213527A1, “COMPOSITIONS AND METHODS FOR POLYPEPTIDE ANALYSIS” (Quantum-Si Incorporated, priority 2021, published 2023)
Square brackets hold non-standard residues; d marks the D form. Ends that are not written are not given here. Cit = NC(=O)NCCC[C@H](N)C(=O)O

Assays:
PS961 = assay: Dynamic single-molecule sequencing, recognition by PS961; assay type: binding, Planctomycetes; conditions: for Median PD, recognition of N-terminal leucine by PS961: peptides RLAFAYPDDD, RLIFAYPDDD, RLVFAYPDDD; for RS mean PD, N-terminal leucine by PS961 / RS mean duration for leucine recognition: leucine followed by threonine or phosphothreonine
Chain of PS961 (as listed by the source): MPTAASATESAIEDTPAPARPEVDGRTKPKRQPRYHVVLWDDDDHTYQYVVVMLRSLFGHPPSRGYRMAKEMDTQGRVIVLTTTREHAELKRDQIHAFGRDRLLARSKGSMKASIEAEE
Protocol: (§1) The semiconductor chip was placed in the sequencing device and a chip check was performed to test electronic circuit function and to optimize laser coupling alignment. The chip was then removed from the device socket and the chip was washed twice with 50 μL of 70% isopropanol, followed by four washes with 30 μL of wash buffer (50 mM MOPS pH 8.0, 60 mM potassium acetate, 50 mM glucose, 20 mM magnesium acetate, and surfactant mix) through a flow cell attached to the chip. A second chip check was then performed. The laser was then blocked via an integrated software-controlled shutter, peptide complex was added to a final concentration of 1-10 nM and mixed thoroughly, and the chip was incubated for 15 min. The chip was then washed six times with wash buffer, followed by addition of an imaging solution (wash buffer with 5 mM Trolox and an oxygen scavenging system). The laser was unblocked and the occupancy percentage (target 10-30%, Poisson distributed) was recorded by acquiring a photobleaching signal from a fluorophore attached to the peptide complex during 5 min of laser illumination. For NAA recognition-only assays, after peptide loading, labeled recognizer was added to a final concentration of 50 nM PS610, 100 nM PS691, or 250 nM PS961 (as indicated according to the experiment), and data was recorded for 10 hours. For dynamic sequencing assays, after peptide loading, a mixture of labeled recognizers was added to obtain final concentrations of 50 nM PS610, 100 nM PS691, and 250 nM PS961. Data was recorded for 15 min. The laser was then blocked briefly and aminopeptidases were added to the sequencing reaction via the flow cell and mixed thoroughly (final concentration 2-8 μM PhTET2 and/or 20-80 μM PhTET3, as indicated according to the experiment). The laser was then unblocked, and data was recorded for 10 hours. For all runs, 30 μL of mineral oil was added to fluid reservoirs at each port of the flow cell to prevent evaporation during the run.
(§2) The measured signal on-chip comprises various noise components, the most dominant one being due to fluorescent emissions from diffusing recognizers in the reaction chamber. The pulse caller algorithm for a given reaction chamber starts by estimating the statistical properties of this background noise component. Once an estimate within certain error bounds has been established, the algorithm works in an online fashion observing new frames of data as they are generated. At each point in time, the algorithm maintains state indicating whether the signal is due to the background component only or a pulse from a recognizer-NAA interaction is being observed. The state transition from background to pulse is triggered using an edge detection test where the shift in signal is expected to be significant with respect to the background component's statistical distribution. The state transition from pulse to background is triggered when a small window of the most recent frames of the signal appears to conform to the background component's distribution again. The algorithm maintains an updated model of the background component as new background frames are observed. This provides robustness against drift in the signal intensity together with a feedback control loop that maintains a stable optical coupling of the laser into the chip based on any such detected drift. As detected pulses can be due to true recognizer-to-dipeptide interaction events as well as other occasional transient noise spikes, a downstream filter layer is employed to test the significance of pulse events based on their duration, intensity, and noise patterns within the context of the full timeline of the run and the entire dataset of reaction chambers.
Initial regions are determined by performing a sliding window calculation of pulse rate along the time dimension of a series of pulses. Regions with a mean pulse rate >1 pulse/min are then subdivided according to a greedy bisection approach.

PS610 = assay: Dynamic single-molecule sequencing, recognition by PS610; assay type: binding, A. tumefaciens; conditions: for Pulse Width: recognizer PS610, recognition of the N-terminal amino acid; for Median PD: peptide LAQFASIAAYASDDD, PS610 and PS961, PhTET2 and PhTET3; for Median pulse duration of tyrosine recognition by PS610: P38MAPKa-derived peptides, PS610, PS961, PS621
Protocol: as §1, with “The laser was then blocked via an integrated software-controlled shutter, peptide complex was added to a final concentration of 1-10 nM and mixed thoroughly, and the chip was incubated for 15 min.” left out, “For NAA recognition-only assays, after peptide loading, labeled recognizer was added to a final concentration of 50 nM PS610, 100 nM PS691, or 250 nM PS961 (as indicated according to the experiment), and data was recorded for 10 hours. For dynamic sequencing assays, after peptide loading, a mixture of labeled recognizers was added to obtain final concentrations of 50 nM PS610, 100 nM PS691, and 250 nM PS961. Data was recorded for 15 min.” left out
as §2
Initial regions are determined by performing a sliding window calculation of pulse rate along the time dimension of a series of pulses. Regions with a mean pulse rate >1 pulse/min are then subdivided according to a greedy bisection approach. Here, the pulses on the left and right of each potential split are assessed for statistically significant deviation in any of four separate pulse properties—intensity, bin ratio, pulse duration, and interpulse duration—using a Mann-Whitney U Test. To define RSs, the split point with the lowest p-value for any of the four properties is used to sub-divide the region and the process continues until no regions remain with a candidate split point with p-value <10^−5 in any comparison. In this manner, transitions from one RS to the next in a region of continuous pulsing are determined a priori on the basis of changes in fluorescence properties of pulsing kinetics.

PS621 = molecular target: T1, PS621 (Kluyveromyces lactis, UniProt O60014, E174T/N105S/N176F/R116K/S153T/V146T); assay: Dynamic single-molecule sequencing, recognition by PS621; assay type: binding; conditions: for PW of R-X / RS R-X: unmodified arginine peptide; for PW of R-X / PW of ADMA-X / RS ADMA-X / RS R-X: average of 10 sequencing reactions; for PW of ADMA-X / RS ADMA-X: ADMA peptide; for RS ADMA-X / RS R-X: RS duration; for Binding with the recognizer PS621 / Median interpulse duration (IPD) of arginine recognition by PS621: P38MAPKa-derived peptides; for Binding with the recognizer PS621: residue at position 2
T1 construct: PS621; […]
T1 sequence (O60014 other isoform, or with tags, fused parts or gaps N105S/R116K/V146T/S153T/E174T/N176F): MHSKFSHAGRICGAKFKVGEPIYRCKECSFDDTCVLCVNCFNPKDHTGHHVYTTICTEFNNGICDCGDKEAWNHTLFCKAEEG
Text: PTM detection involved isolating peptides and subjecting them to a real-time single-molecule protein sequencing reaction. Proteins were first digested into peptide fragments and conjugated C-terminally to macromolecular linkers. The peptide complexes were immobilized at the bottom of nanoscale wells on a semiconductor chip, resulting in single peptide molecules with exposed N-termini ready for sequencing. During the sequencing reaction, the surface-immobilized peptides were exposed to a solution containing dye-labeled NAA recognizers that bound on and off to their cognate NAAs with characteristic kinetic properties. Aminopeptidases in solution sequentially removed individual NAAs to expose subsequent amino acids for recognition. Fluorescence lifetime, intensity, and kinetic data were collected in real time and analyzed to determine amino acid sequence and PTM content.
The trace-level output included distinct pulsing regions called recognition segments (RSs); each RS corresponded to a period of time between aminopeptidase cleavage events during which an NAA recognizer bound on and off to its exposed target NAA. Chemical modifications to a target NAA or to a nearby downstream amino acid can modulate recognizer affinity, resulting in a characteristic change in the average pulse duration (PD) during an RS relative to an unmodified peptide. These modifications can also influence the rate of aminopeptidase cleavage of an NAA, resulting in a characteristic change in average duration of the corresponding RS.
Synthetic peptides corresponding to residues 69 to 76 of P38MAPKa were generated in three versions containing either arginine, ADMA, or SDMA at position 2: YRELRLLK (SEQ ID NO: 834), YRADMAELRLLK (SEQ ID NO: 835), and YRSDMAELRLLK (SEQ ID NO: 836). Each peptide was sequenced using three recognizers—PS610 (F, Y, W), PS961 (L, I, V), and PS621 (R)—and data were analyzed to identify RSs, determine the mean PD of each RS, and characterize the kinetic signature of each peptide.
In this example, sequencing reactions were performed using PS621 (R), PS610 (FYW), and PS961 (LIV) recognizers for 9 pairs of peptides. Each pair comprised one peptide comprising an unmodified arginine residue followed by a non-arginine amino acid (referred to as an R-X peptide) and one peptide having an identical sequence except that the unmodified arginine was modified to be ADMA (referred to as an ADMA-X peptide).

How did the “Median PD of leucine recognition, first population of traces” value (PS961; leucine followed by methionine (LM)) turn out when “RLMFAYPDDD (not fully specified (residue 3, C-terminus); also: all synthetic peptides contained C-terminal Fmoc-azidolysine)” was run?
Its value is 0.86 s.

And the “Median PD of leucine recognition, second population of traces” value (PS961; methionine not recognized, oxidized (LMo))?
Its value is 0.35 s.

How did the “Pulse Width” value (PS610) turn out when “YCitIAFAYPDDDK (Y[Cit]IAFAYPDDDK-NH2; also: C-terminal azidolysine (general statement for all synthetic peptides)) [QP1031]” was run?
Its value is 1.12 s.

With “YRIAFAYPDDDK (YRIAFAYPDDDK-NH2; not fully specified (residue 2); also: all synthetic peptides contained C-terminal Fmoc-azidolysine) [QP1030]” as the substance, how does the “Pulse Width” value (PS610) read?
The value was 0.77 s.

RLAFAYPDDD was tested. Which “Median PD, recognition of N-terminal leucine by PS961” value (shortened to “Median PD, recognition”) (PS961) did it give?
The value was 1.29 s.

Which “RS mean PD, N-terminal leucine by PS961” value (PS961) does the source give for “RLTFIAYPDDD (not fully specified (residue 3, C-terminus); also: all synthetic peptides contained C-terminal Fmoc-azidolysine)” here?
Its value is 1.2 s.

What about the “RS mean duration for leucine recognition” value (PS961) of the same substance?
The value was 8.1 min.

Which “PW of R-X” value (PS621) does the source give for LRSAFAYPDDDK [QP748] here?
The value was <0.12 s.

What does the source list for LAQFASIAAYASDDD?
Median PD (PS961; peptide LAQFASIAAYASDDD, PS610 and PS961, PhTET2 and PhTET3): 2.70 s; Median PD (PS610; listed as FAS): 1.43 s; Median PD (PS610; listed as YAS): 0.66 s

LRADMALAFAYPDDDK [QP729] was tested. Which “PW of ADMA-X” value (PS621) did it give?
Its value is 0.48 s.

What about the “RS ADMA-X” value (PS621) of the same substance?
The value was 48.5 min.

For LRQAFAYPDDDK [QP941], which “PW of R-X” value (PS621) is on record?
Its value is <0.06 s.

For “FRLAFAYPDDDK (FRLAFAYPDDDK-NH2; not fully specified (residue 2); also: all synthetic peptides contained C-terminal Fmoc-azidolysine) [QP1028]”, which “Pulse Width” value (PS610) is on record?
The value was 4.94 s.

Which “PW of R-X” value (PS621) does the source give for LRTAFAYPDDDK [QP942] here?
The value was <0.06 s.

How did the “Median pulse duration of tyrosine recognition by PS610” value (PS610) turn out when “YRSDMAELRLLK (YRELRLLK) [P38MAPKa peptide with symmetric dimethylarginine at position 2]” was run?
The value was 1.48 s.

And the “Binding with the recognizer PS621” value (PS621)?
The value was “no binding”.

LRADMAQAFAYPDDDK [QP944] was tested. Which “PW of ADMA-X” value (PS621) did it give?
Its value is 0.21 s.

LRADMAAAFAYPDDDK [QP743] was tested. Which “PW of ADMA-X” value (PS621) did it give?
Its value is 0.19 s.

With LRADMAVAFAYPDDDK [QP946] as the substance, how does the “PW of ADMA-X” value (PS621) read?
Its value is 0.32 s.

And the “RS ADMA-X” value (PS621)?
The value was 33.8 min.

Which results are given for RLpTFIAYPDDD?
RS mean PD, N-terminal leucine by PS961 (PS961): 0.3 s; RS mean duration for leucine recognition (PS961): 130 min

Which “PW of R-X” value (PS621) does the source give for LRAAFAYPDDDK [QP747] here?
The value was <0.12 s.

Which results are given for “YRADMAE (YRELRLLK) [YRADMAELRLLK, P38MAPKa peptide with asymmetric dimethylarginine at position 2]”?
Median pulse duration of tyrosine recognition by PS610 (PS610): 1.47 s; Median interpulse duration (IPD) of arginine recognition by PS621 (PS621): 5.82 s; Binding with the recognizer PS621 (PS621): binding

Which results are given for LRIAFAYPDDDK [QP749]?
RS R-X (PS621): 15.4 min; PW of R-X (PS621): 0.28 s

How did the “PW of ADMA-X” value (PS621) turn out when LRADMAIAFAYPDDDK [QP745] was run?
The value was 0.32 s.

What about the “RS ADMA-X” value (PS621) of the same substance?
Its value is 46.9 min.

Which results are given for LRVAFAYPDDDK [QP943]?
RS R-X (PS621): 25.5 min; PW of R-X (PS621): 0.41 s

What does the source list for LRADMAYAFAYPDDDK [QP742]?
PW of ADMA-X (PS621): 0.25 s; RS ADMA-X (PS621): 39.2 min

LRADMAEAFAYPDDDK [QP939] was tested. Which “PW of ADMA-X” value (PS621) did it give?
Its value is 0.34 s.

“FCitLAFAYPDDDK (F[Cit]LAFAYPDDDK-NH2; also: C-terminal azidolysine (general statement for all synthetic peptides)) [QP1029]” was tested. Which “Pulse Width” value (PS610) did it give?
The value was 5.24 s.

How did the “PW of ADMA-X” value (PS621) turn out when LRADMASAFAYPDDDK [QP744] was run?
The value was 0.55 s.

How did the “PW of ADMA-X” value (PS621) turn out when LRADMATAFAYPDDDK [QP945] was run?
The value was <0.06 s.

How did the “RS R-X” value (PS621) turn out when LRYAFAYPDDDK [QP746] was run?
The value was 9.6 min.

And the “PW of R-X” value (PS621)?
The value was 0.18 s.

With RLVFAYPDDD as the substance, how does the “Median PD, recognition” value (PS961) read?
Its value is 4.21 s.

LREAFAYPDDDK [QP938] was tested. Which “PW of R-X” value (PS621) did it give?
The value was <0.06 s.

RLIFAYPDDD was tested. Which “Median PD, recognition” value (PS961) did it give?
The value was 2.22 s.

For YRELRLLK, which “Median pulse duration of tyrosine recognition by PS610” value (PS610) is on record?
The value was 0.69 s.

What about the “Median interpulse duration (IPD) of arginine recognition by PS621” value (PS621) of the same substance?
The value was 10.05 s.

And the “Binding with the recognizer PS621” value (PS621)?
The value was “binding”.
